System: MS2 coat protein
Test: apparent KD of MS2 coat protein; designed switch direction (-1 OFF switch, 1 ON switch): -1; higher = weaker reporter binding
In short: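 An oligonucleotide input, 200 uM small-molecule ligand, or no input was present during titration of SNAP-549-labelled MS2 coat protein, which was doubled from 0.7 or 1.5 nM to 3 µM. Designed RNA switches had been transcribed on Illumina chips by stalled E. coli RNA polymerase. Apparent KD per design is the median over clusters of curves fitted to normalised cluster fluorescence.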

[1] = Eterna round: R95, input ligand: microRNA oligo, concentration not stated
[2] = Eterna round: R95, input ligand: FMN 200 uM
[3] = Eterna round: R95, input ligand: none
[4] = input ligand: microRNA oligo, concentration not stated

AGUCGUAGACAGGAUAUGCGGCUAAUAAAUAAAGCAGAAGGGUCUACUUGAGGAUCACCCAAGUGGGCGGUCAA [jl-ex6-4.21 ViennaUCT mod] (Eterna round: R97, puzzle: Exclusion 6)
apparent KD of MS2 coat protein (input ligand: FMN 200 uM): 186 nM
apparent KD of MS2 coat protein (input ligand: none): 51.8 nM

AGUGCGUAUGUGAGGAUAUGCUGGUCCUUGGCUCGGCAGAAGGCACAUGAGGAUCACCCAUGUGGUGUCGUACG [salish99_Bmod_ex4_065] (puzzle: Brourd's mod of Exclusion 4)
apparent KD of MS2 coat protein [1]: 48.8 nM

AGUGUGUUAGGAUAUCGGAUAUGCUGGAGGAGGUGGAGUUACGAGAAGGAACAUGAGGAUCACCCAUGUAGGAC [JR_Exclu4_Sub049] (puzzle: Exclusion 4)
apparent KD of MS2 coat protein [1]: 25.7 nM

AGUUAGAUAGGAUAUGCCCGAGAUAACAUGAGGAUCACCCAUGUGACCGAAUCUAUUCUAGCAGAAGGGUUUAUGA [Mod of ViennaUCT 19 - Jieux - Exclusion 5] (Eterna round: R97, puzzle: Exclusion 5)
apparent KD of MS2 coat protein (input ligand: FMN 200 uM): 40.2 nM
apparent KD of MS2 coat protein (input ligand: none): 95 nM

AGUUAUGUAGGAUAUGCACGUGACAACUUGAGGAUCACCCAAGUGAUUGCAGGCUGGGCGGCAGAAGGGCAGUUGU [Diedbi] (Eterna round: R97, puzzle: Exclusion 5)
apparent KD of MS2 coat protein (input ligand: FMN 200 uM): 153 nM
apparent KD of MS2 coat protein (input ligand: none): 104 nM

AGUUAUUCAGGAUAUGGUGUGUUAUACAUGAGGAUCACCCAUGUGGGUCCUGGUUUGGCCUCAGAAGGGAAUGUUA [salish99_ex5_r4_123] (Eterna round: R97, puzzle: Exclusion 5)
apparent KD of MS2 coat protein (input ligand: FMN 200 uM): 507 nM
apparent KD of MS2 coat protein (input ligand: none): 600 nM

AGUUGGCGAGGAUAUACAUGAGGAUCACCCAUGUGAAAGAGAAGAGUGAGGAAGAAAAGUAGAAGGCGCUGACA [Mat - Exclusion 3 - Mod of Salish D39] (puzzle: Exclusion 3)
apparent KD of MS2 coat protein [2]: 135 nM
apparent KD of MS2 coat protein [1]: 69.3 nM
apparent KD of MS2 coat protein [3]: 75.2 nM

AGUUUUAAUGAGGAUAUCGUAUUGGAUAUAGUGCGAGAAGGCAUUACAUGAGGAUCACCCAUGUUUUGUUGGGA [JR_Ex6_Sub008] (Eterna round: R97, puzzle: Exclusion 6)
apparent KD of MS2 coat protein (input ligand: FMN 200 uM): 58.1 nM
apparent KD of MS2 coat protein (input ligand: none): 24.5 nM

AUAAGCUUUGAGAUCCUUAACAUGAGGAUCACCCAUGUUCGUCUUAUGAUGGUCUGAUCCCUGAGGAUCGGACCGUG [Mat - Sensor v3 - turn-off var 1 - JL Mod - D2] (puzzle: Sensor v3, turn-off variant 1)
apparent KD of MS2 coat protein [2]: 277 nM
apparent KD of MS2 coat protein [1]: 5.74 nM
apparent KD of MS2 coat protein [3]: 380 nM

AUAAGGGCAGGAUAUGCAGAAAAGAUUGGCGUGGUCCUGACACAUGAGGAUCACCCAUGUAGAAGGGCCUAGCC [Maquzaar] (Eterna round: R97, puzzle: Exclusion 2)
apparent KD of MS2 coat protein (input ligand: FMN 200 uM): 13.5 nM
apparent KD of MS2 coat protein (input ligand: none): 14.8 nM

AUAAUACAUGUAGGAUAUCUGCACGUUUAGUGCAGAGAAGGACAUGAGGAUCACCCAUGUAAUUAAGAUCAAUUAUUAAAUUAU [ENG1/3-D2] (Eterna round: R96, puzzle: Exclusion NG 1)
apparent KD of MS2 coat protein (input ligand: FMN 200 uM): 293 nM
apparent KD of MS2 coat protein [4]: 54.7 nM
apparent KD of MS2 coat protein (input ligand: none): 66.2 nM

AUAAUACAUGUAGGAUAUGCGUGGCGAAGCUAUGCAGAAGGACAUGAGGAUCACCCAUGUCUUAGCGUCUGCGUACAGAUGCUA [JL eng1 1.35 mod 2] (Eterna round: R96, puzzle: Exclusion NG 1)
apparent KD of MS2 coat protein (input ligand: FMN 200 uM): 27.9 nM
apparent KD of MS2 coat protein [4]: 12.1 nM
apparent KD of MS2 coat protein (input ligand: none): 16.4 nM

AUAAUGUAAGGAUAUCAGUCGACUAGCUGCGGCUAGUCGACUGAGAAGGUACAUGAGGAUCACCCAUGUGAAUA [E4/16-A3] (Eterna round: R97, puzzle: Exclusion 4)
apparent KD of MS2 coat protein (input ligand: FMN 200 uM): 224 nM
apparent KD of MS2 coat protein (input ligand: none): 41.7 nM

AUAAUGUAAGGAUAUCAGUCGUUAAUAAUUAAUUAAUCGACUGAGAAGGUACAUGAGGAUCACCCAUGUGAUCA [E4/8-B2] (Eterna round: R97, puzzle: Exclusion 4)
apparent KD of MS2 coat protein (input ligand: FMN 200 uM): 44.1 nM
apparent KD of MS2 coat protein (input ligand: none): 1000 nM

Source: the supplement of paper PMC9170038
